Reference: a protein production outcome set (Wang et al. 2014)

Assay: label from the status in PepcDB records

Row | Sequence | protein production
1 | MSTLQTPGATLYSFRRCPYAMRARLALRYAGVPMRIVEVSLKAKPAEMLALSAKGTVPVLALEDRVIDESLEIMHWALAQHDPEDWRLTADPTAQAQMAALIAENDQVFKVHLNRYKYAERYPEAPMEHYRAQGEAFLARLDSLLQQRRYLLAEHPSLADMALLPFVRQFAHVDREWFAQTPYRSLQEWLQERLASELFLAVMAKQ | failed
2 | MSTPTAADRAKALERKNEGNVFVKEKHFLKAIEKYTEAIDLDSTQSIYFSNRAFAHFKVDNFQSALNDCDEAIKLDPKNIKAYHRRALSCMALLEFKKARKDLNVLLKAKPNDPAATKALLTCDRFIREERFRKAIGGAENEAKISLCQTLNLSSFDANADLANYEGPKLEFEQLYDDKNAFKGAKIKNMSQEFISKMVNDLFLKGKYLPKKYVAAIISHADTLFRQEPSMVELENNSTPDVKISVCGDTHGQFYDVLNLFRKFGKVGPKHTYLFNGDFVDRGSWSCEVALLFYCLKILHPNNFFLNRGNHESDNMNKIYGFEDECKYKYSQRIFNMFAQSFESLPLATLINNDYLVMHGGLPSDPSATLSDFKNIDRFAQPPRDGAFMELLWADPQEANGMGPSQRGLGHAFGPDITDRFLRNNKLRKIFRSHELRMGGVQFEQKGKLMTVFSAPNYCDSQGNLGGVIHVVPGHGILQAGRNDDQNLIIETFEAVEHPDIKPMAYSNGGFGL | not failed
3 | MSTQDERQINTEYAVSLLEQLKLFYEQQLFTDIVLIVEGTEFPCHKMVLATCSSYFRAMFMSGLSESKQTHVHLRNVDAATLQIIITYAYTGNLAMNDSTVEQLYETACFLQVEDVLQRCREYLIKKINAENCVRLLSFADLFSCEELKQSAKRMVEHKFTAVYHQVAFMQLSHDLLIDIFSSDNLNVEKEETVREAAMLWLEYNTESRSQYLSSVLSQIRIDALSEVTQRAWFQGLPPNDKSVVVQGLYKSMPKFFKPRLGMTKEEMMIFIEASSENPCSLYSSVCYSPQAEKVYKLCSPPADLHKVGTVVTPDNDIYIAGGQVPLEKHKNKSQ | failed
4 | MSTQSEAILEENLLKQLVSLGYEKVLIRDEAELLANLKAQLERHNKITLDDMEFSRILNHLNKGNVFEKAKILRDKFALTREDGTTKYIEFLDTERWCQNLFQVTHQVTIEGSYKNRYDVTILINGLPLVQIELKRRGLELKEAFNQINRYQRHSYGANSALFHYVQIFVISNGVNTKYYANNRNQSFKQTFFWADKENKNITNLNEFTDLFLEPCHISKMICKYVVLAEATKTLMILRPYQYHATEAIIDRVVNTNKNGYIWHTTGSGKTLTSFKTAQILMKLPNVHKVVFVVDRKDLDYQTTKEFNSFSQGSVDGTDNTASLVRQFSDDTRLIVTTIQKLNTAINKQRYLEKMKNLRDKRIVFIFDECHRSQFGDTHRNITKFFNNYQMIGFTGTPIFADNATGNKFGKRTTKELFDECLHKYVITDAIADENVLKFSVEYIGRYKEREGSQNNLDIEVEDIDTKELLESPERLEKIVDYIIAHHDRKTHSKEFTAMMCVSSVDVLTKYYELFRSKQHGLKIATIFSYSTNEDDKDANGLDSLEESDGAHVDEEHINMHSRDKLEEYIAHYNTMFGTNFTTKDSQSFYNYYNDISKRVKNQEVDILLVVNMFLTGFDSKTLNTLYVDKNLKYHGLIQAFSRTNRILNEKKSQGNILCFRNLKKATDAAIALFSNKNAKEIILMKSYEEYVEKFIEALKKLKEIAPTIDSVDSLYDEESKLEFIKAFRELMRIQNILGSFADFSFADLGIAEQEFEEYKSKYLDIHDTIKREGKEKVSILEDVDFELELIHKDEINVTYILKLLAQLKDASEQEHQTQRQNIINIINGNAQLRSKRELIERFIDAHLMSLEDIDMVDGAFEKFWNEEKLKAFDALCEEENLNKEKVKKVVDTYLYDERPPLSDDIANTLNIKPKLLERRKVVPRVLDKIMTFVDRFYT | failed
5 | MSTRSMSAPANATVADVAAGDAIRSLDPSIRAVWAIKMAAFSMFLFLPALFYDLTHLFSPDSWLPFGVLSGTVLVGGVLYCVAWPRLRYRAWGFVLRPEELYMEHGVLQHVRTIVPLRRIQHVDVSQDLIEREFALGRLVVHTAGSRSSDVVIPGLPLSEAETIRDKIKRFILEDPLTEEPV | failed
6 | MSTTALVGTGHRPTIVLVGHGMVGQRFLEALAERGLTATHRVVVLCEEPRPAYDRVQLTSYFSGTTPDELSMTDAEFITEHGIDLRLGDPAETVDREARTVTARSGLVIAYDTLVLATGSYPFVPPVPGKDAEGCFVYRTIEDLLAIEAYAKSRATTGAVVGGGLLGLEAAGALKGLGLTSHIVEFAPRLMPVQVDAGGGAALLRTIEDMGLTVHTGTGTQEIVTGDDGAVTGMKLSDGSELATDLVVFSAGVRPRDQLARDCGLPVGERGGIAVDAQCRTEDPHVFAIGECALAADGRVYGLVAPGYEMAETAAATIASADSSFTGADLSTKLKLLGVDVASFGDAHGATAGCLDVVYADSRSGTYKKLVIGRDGELLGGILVGDADAYGTLRALTGSVPPVSPEQLVLPAGGGGGVALGPSALPDSAVICSCHNVTKGAIRGAVTEHSCTTLPEVKKCTKAGTGCGSCVKVLGQLVNDELTASGVEVDHGLCGCFTQTREELYEIVLALRITSYRSLLDRYGREGARGGDGCEVCKPTVGSIIASLAPTIGANGYVLDGEQSALQDTNDHFLANLQKNGSYSIVPRIPGGEITPEKLIVIGEVARDFGLYTKITGGQRIDLFGARVEQLPLIWTRLVDAGFESGHAYGKSLRTVKSCVGQSWCRYGVQDSVRMAIDLELRYRGLRSPHKLKSAVSGCARECAEAQSKDFGIIATANGWNLYVGGNGGATPRHADLLAQDLSDAELVRLIDRFLMFYIRTADRLERTSVWLERIPGGLDHIRDVVVHDSLGICEELESLMTAHVANYRDEWTETINDPEKLARFVSFVNAPDTPDPVVGFVPERDQIKPDLPLLTIGHRPLEGSAQR | failed
7 | MSTTGDSAPQISGTAESAKECADWQALLERIPYAQHLGLEVQRGDVGVLVHLPCREALIGNFMLPALHGGVLGALIELTARVAAQSQDAETRCPRILDSHINYLRSAKARSTFARADIIRQGRRTSLVQVTCWQGDDKKPIATGQVQLLLPTMAAQQEDRHGH | failed
8 | MSTTQLKVKEINEELDSRPAVPPINDIRSYIAALEAHGVLHRVKAEVDWKFELAHISKVNEEQKGPALLYENVKGNTIPVFTSAFTTPERIAICLEQDPSLSMCQLSRKWMELTTKQMIKPTFVKNPPVMENIIEEKDVDLENFPAPWFYPDDGGRFFGTSGYLVTQDPDTGWTNLGTYRSQILGKNILGSQIISGKHGDFHMKKYQERGEKMPVAYVVGGDPILFLASSTLVSAQTDEYDVGGALRGRPIEVFKSDLTGLTLPANAEIIVEGWMDPEELMEEGPFGEYTGYYSGNKMKDYPKPVIRVKRIIHRNKPIFWSTTVGKPINDTHMVQSINRTATLWHDLETMKVPGIQSVYFPAAATGRFWVVASVKQMYPGHSNHVADAINGSTTGHYGVKGIIIVDHDIAADDMDRVWWALAVRFDPKRSTQIITRGRSTPLDPGLPIEARDVVSRIILDATIPYEWKNKPNEIFMDRTVLQKVSDRWNEYGFTGASPVAEMIPRLTRPEVKKK | failed
9 | MSTTYYWLCLLASIVFEVAGTSVMKLSQETWPLLGMGCMYLLLGLSYFFLARAVVKLPVGVAYAFWEGLGLTLITIVSVTLLDERLDAMRLAALGMVLAGTLLVHHGTAHGRDDEEAEAASGGEGRI | failed
10 | MSTYLIGDIHGCLDELLALLAQVNFDPQQDTLWLTGDLVARGPASLDVLRYVRSLGPAVRMVLGNHDLHLLAVYAGISRNKPKDRITPLLDAPDADELINWLRRQPVLQVDDQLKLIMAHAGITPQWDIETAKMCAREVEAVLSSDSYPLFLDAMYGDMPNNWSPELTGLARLRFSTNALTRMRFCFPNGQLDMICKDTPENAPAPLKPWFDLPRLVDPEYSIIFGHWASLEGKGVPEGIYGLDTGCCWGGDLTLLRWDDKRYFTQRAFKAEAEINNNNGFAAGEAVQH | failed
11 | MSTYYNDHLAAAEKDISSSNFCNLVDASVMLYDEEHRDLLPKKVNSRCQAKTKKQEKESDKRFFDLFPKKRRTSVVTVRNPEQNQQNLHRVSTSSSLLDLNTIPGDSSDPRNELQGLLSSSSSSFLGDYERKTPQNASSSSTLLAEYNTEMANPPNPNSETSLKRKHSDSEPKKAKTPYSWKGREAPEWLVKMMGTMQGSEGPRLIYEKTLTETDVKPVQSRLLMPFNTLIRNDFLTPVELRILLELEDDTDGVGATLVDPWEVKWGVILKKREMKKYSGKGSLNYAIICGWNDIVEANVLEKDDDISIWSFRRGRNGILSFALVLPPPPDMA | failed
12 | MSVAFVPDWLRGKAEVNQETIQRLLEENDQLIRCIVEYQNKGRGNECVQYQHVLHRNLIYLATIADASPTSTSKAME | failed
13 | MSVAGLKKQFHKASQLFSEKISGAEGTKLDDEFLDMERKIDVTNKVVAEILSKTTEYLQPNPAYRAKLGMLNTVSKIRGQVKTTGYPQTEGLLGDCMLKYGKELGEDSTFGNALIEVGESMKLMAEVKDSLDINVKQTFIDPLQLLQDKDLKEIGHHLKKLEGRRLDYDYKKKRVGKIPDEEVRQAVEKFEESKELAERSMFNFLENDVEQVSQLAVFIEAALDYHRQSTEILQELQSKLQMRISAASSVPRREYKPRPVKRSSSELNGVSTTSVVKTTGSNIPMDQPCCRGLYDFEPENQGELGFKEGDIITLTNQIDENWYEGMIHGESGFFPINYVEVIVPLPQ | failed
14 | MSVAILAQEKLGDCVLLTPLVRNLRQAFPDLEIHLITFSRASANFFMNDPQVTAVHLVKKQPRRYFREVLSRKFDLLFNTKDHPSTWFLLQSALIRARFKVGHNNPFHEGLYDRLLDTEFHAHMAVKNCALLPLLGVTADTEACRPSLEHHHHHH | not failed
15 | MSVELEESQVCEACGCAGEIGFIIKEGDEVADVTIFAETKDALESELAKYIELAKSVCAGVEYNVSELTEESKELTARFKFEVSAEKLIFELKTRSLARLEHHHHHH | not failed
16 | MSVIATILAYAGLAIVSTVVVWKGSELLESSTEKLSGYYQLPPLVQGSIVLAVGSSFPELSTAVLSAALHGDFELGVAAVVGSALFNILMIPALAGLWAEERLESTRDLIYKETQFYLISIVVLLLMFSFAVIYNPLAGGTDAQVGGVTRGLALLPLALYAVYVYLQYQDTRDHQPEAPPEDIHLPKQGTRLVGSLLIILIGVEGLIRSAVAFGDIFGTPSFLWGITVVAAGTSVPDAFVSIRASRAGNPVTSVANVLGSNIFDLLVCIPAAALVAGTVAINYSVGMPMMGVLSLATLIVLLTMRSEMVLTTPEAWGLIALYLAFVVWMGAETVGTVDLIPHLPPPAHTP | failed
17 | MSVISIILVLIIAFLAGLDGILDQFQFHQPLVSCTLIGLASGHTVAGIMLGGTLQFLALGWANIGAAVAPDVALASTAAAVIMIKGGDFSQKGITIAYGVAVPLAIAGLALTMVVRAISIGIVHGADAAAKNGNIRAVERSHYFALLLQGLRIVFPVALLLALPANHVKSILEAIPSWLSDGMTIGGGMVVAVGYAMILNMMATREVWPFFIIGFVLAAIPDTQITLFGLGMIGVALAMIYIALTNQTGRNSSSGQASSSSNDPIGDILEDY | failed
18 | MSVKVSVDDIDGITEVLNVYMNAAESGTGEEMSAAFHKDATIFGYVGDKLAFNGPIKDLYDWHNSNGPAKNVQSRITNIDIVGTVAHARVEAENWTNFKFSDLFLLLKLDGKWTIVNKVFHLHA | not failed
19 | MSVLGFDIGNLNCYIGVARQGGIEVITNDYSLHATPACVSFGPKDRSMGVAARQAVTTNIKNTVINFKHLIGRKFSDPVAQRFIPFIPCKVVKLPNDDIGVQVSYLGEPHTFTPEQVLAALLTKLRTIVESQLSDVKKVSDCVLAVPSYFTDVQRRAVLSAIQYAGLNSLRIVNETTAIALAYGIYKQDLPEEDAKSRNVVFLDIGHSSTQASLVAFNRGKLQMVNTSYDLESGGIWFDALIREHFRKEFKTKYGIDAATSPRPWLRLLDECERVKKQMSANQTPIPLNIECFMEDKDVTGKMQRQEFEDLAAPIFNRIKQVLINLFADGVSIKPEEIDEIEIVGGSSRIPMIREIVKDLFGKEPKTTMNQDEAVARGAAMQCAILSPTFRVREFAIKDTQPYRIRLSWNSTGENGGENDVFSPRDEVPFSKLVSLLRSGPFNVEAHYAQPNVVPHNQVHIGSWKVNGARPGADGGNQKVKVKVRVNPDGIFTIASATMYEPRIVEEVPAEAMEVDGDAKTEAPAEPL | failed
